In US20150203577A1 (Chugai, published 2015):
Positions count from the first letter of the chain named. Numbers in names are those of the source. Like-named read-outs stand apart in the source and are kept apart here.

Legend:
mouse FcγRIII [1] = molecular target: T1, mouse FcγRIII (mouse, UniProt P08508 31-215); experiment: SPR Biacore T200, KD ratio
T1 construct: also called mFcγRIII; mFcgRIII
T1 chain: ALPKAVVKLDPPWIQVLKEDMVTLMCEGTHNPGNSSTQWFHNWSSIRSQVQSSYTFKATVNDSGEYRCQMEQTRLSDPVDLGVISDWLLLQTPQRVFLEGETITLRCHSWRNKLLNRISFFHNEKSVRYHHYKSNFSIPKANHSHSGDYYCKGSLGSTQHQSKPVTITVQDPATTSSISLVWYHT
Description: (§1) The antibody L chain commonly used was the L chain MRAL-k0 (SEQ ID NO: 2) of the anti-IL-6 receptor antibody tocilizumab. The antibody H chain constant region used was each of the aforementioned 8 Fc variants prepared by altering human IgG1 hIgG1 (SEQ ID NO: 3) as a template.
(§2) Each altered antibody was analyzed for its interaction with each Fcγ receptor prepared above using Biacore T100 (GE Healthcare Japan Corp.), Biacore T200 (GE Healthcare Japan Corp.), Biacore A100, or Biacore 4000. The running buffer used was HBS-EP+ (GE Healthcare Japan Corp.). The assay temperature was set to 25° C. The sensor chips used were chips prepared by immobilizing Protein L (ACTIGEN or BioVision) onto Series S Sensor Chip CM5 (GE Healthcare Japan Corp.) or Series S Sensor Chip CM4 (GE Healthcare Japan Corp.) by the amine coupling method.
(§3) In order to calculate the KD value of each altered antibody for FcγR, kinetic analysis was conducted according to the following method: first, the antibody of interest was captured onto any of these chips and allowed to interact with mFcγR diluted with a running buffer. For the obtained sensorgram, the assay results were globally fit into the 1:1 Langmuir binding model using Biacore Evaluation Software to calculate an association rate constant ka (L/mol/s) and a dissociation rate constant kd (1/s). From these values, the dissociation constant KD (mol/L) was calculated.

mouse FcγRII [2] = molecular target: T2, mouse FcγRII (mouse, UniProt P08101 30-210); experiment: SPR Biacore T200, KD ratio
T2 construct: also called mFcγRII; mFcgRII
T2 sequence: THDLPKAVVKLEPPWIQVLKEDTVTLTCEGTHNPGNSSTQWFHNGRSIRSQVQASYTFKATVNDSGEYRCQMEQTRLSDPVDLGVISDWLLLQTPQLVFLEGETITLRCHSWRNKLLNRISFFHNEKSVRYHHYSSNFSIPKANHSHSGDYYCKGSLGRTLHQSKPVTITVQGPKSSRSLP
Description: as §1, §2, §3

mouse FcγRIII [3] = molecular target: T1, mouse FcγRIII; experiment: SPR Biacore T200, KD ratio
mouse FcγRII [4] = molecular target: T2, mouse FcγRII; experiment: SPR Biacore T200, KD ratio; remark: listed apart in the source
mouse FcγRII [5] = molecular target: T2, mouse FcγRII; experiment: SPR Biacore T200, KD ratio; remark: listed apart in the source
mouse FcγRIII [6] = molecular target: T3, mouse FcγRIII (mouse, UniProt P08508 31-215); experiment: SPR (Biacore), antibody captured on Protein L, mFcγR as analyte
T3 construct: also called mFcγRIII; mFcgRIII
T3 chain: T1 chain
Description: (§4) The antibody of interest was captured onto any of these sensor chips and allowed to interact with mFcγR diluted with a running buffer. The amount bound to the antibody was measured and compared among antibodies. Since the amount of mFcγR bound depends on the amount of the captured antibody, a correction value determined by dividing the amount of mFcγR bound by the amount of each captured antibody was used in the comparison. The antibody captured on the sensor chip was washed off through the reaction of 10 mM glycine-HCl (pH 1.5) to regenerate the sensor chip, which was repetitively used.
as §3

mouse FcγRII [7] = molecular target: T2, mouse FcγRII; experiment: told of the L104-mk1 form; SPR was run on the MRAL-k0 form
[8] = molecular target: T4, mouse FcγRIII extracellular domain, C-terminally His-tagged (mouse, UniProt P08508 31-215); experiment: SPR Biacore T200, antibody captured on Protein L
T4 construct: the whole entry is named; also called mFcγRIII; mFcgRIII
T4 chain: T1 chain
Description: As for alterations, “X000Z” represents the substitution of amino acid X at EU numbering position 000 by amino acid Z. In this context, X and Z represent the one-letter codes of the amino acid residues.
as §2, §3

[9] = molecular target: T5, mouse FcγRII extracellular domain, C-terminal His tag (mouse, UniProt P08101 30-210); experiment: SPR (Biacore T200); KD of H237-mIgG1/MRAL-k0 / KD of variant
T5 construct: Whole entry named; also called mFcγRII; mFcgRII
T5 sequence: T2 sequence

[10] = molecular target: T6, mouse FcγRIII extracellular domain, C-terminal His tag (mouse, UniProt P08508 31-215); experiment: SPR (Biacore T200)
T6 construct: Whole entry named; also called mFcγRIII; mFcgRIII
T6 chain: T1 chain
Text: (§5) The antibody H chain variable region used was the variable region H237 (SEQ ID NO: 1) of the H chain VH3-IgG1 of the anti-IL-6 receptor antibody Fv4-IgG1 described in WO2009/125825. The antibody L chain commonly used was the L chain MRAL-k0 (SEQ ID NO: 2) of the anti-IL-6 receptor antibody tocilizumab. […] These variants were expressed and purified by the method of Reference Example 1 and evaluated for their binding to mFcγRII and mFcγRIII by the method of Reference Example 2 using Biacore T200.
as §2

[11] = molecular target: T5, mouse FcγRII extracellular domain, …; experiment: SPR (Biacore T200); KD of H237-mIgG1/MRAL-k0 / KD of variant; remark: listed apart in the source
[12] = molecular target: T6, mouse FcγRIII extracellular domain, …; experiment: SPR (Biacore T200)
mouse FcγRII [13] = molecular target: T2, mouse FcγRII; experiment: told of the L104-mk1 form; SPR (Table 28) was run on the MRAL-k0 form
[14] = molecular target: T5, mouse FcγRII extracellular domain, …; experiment: SPR (Biacore T200)
Text: as §5, §2

mouse FcγRII [15] = molecular target: T7, mouse FcγRII (mouse, UniProt P08101 30-210); experiment: SPR (Biacore), antibody captured on Protein L, mFcγR as analyte
T7 construct: also called mFcγRII; mFcgRII
T7 sequence: T2 sequence
Description: as §4, §3

[16] = molecular target: T6, mouse FcγRIII extracellular domain, …; experiment: SPR (Biacore T200); KD of H237-mIgG1/MRAL-k0 / KD of variant

B1: FS135 (antibody, human IgG1, kappa)
heavy: QVQLQESGPGLVKPSETLSLTCAVSGHSISHDHAWSWVRQPPGEGLEWIGFISYSGITNYNPSLQGRVTISRDNSKNTLYLQMNSLRAEDTAVYYCARSLARTTAMDYWGEGTLVTVSSASTKGPSVFPLAPSSKSTSGGTAALGCLVKDYFPEPVTVSWNSGALTSGVHTFPAVLQSSGLYSLSSVVTVPSSSLGTQTYICNVNHKPSNTKVDKKVEPKSCDKTHTCPPCPAPELLGGPDVFLFPPKPKDTLMISRTPEVTCVVVDVAHEDPEVKFNWYVDGVEVHNAKTKPREEQYNSTYRVVSVLTVLHQDWLNGKEYKCKVSNKAYPAPIEKTISKAKGQPREPQVYTLPPSRDELTKNQVSLTCLVKGFYPSDIAVEWESNGQPENNYKTTPPVLDSDGSFFLYSKLTVDKSRWQQGNVFSCSVMHEALHNHYTQKSLSLSPGK
light: not shown
notes: human IgG1 constant region variant; copies: 2 + 2
relative mFcγRIII-binding activity (mIgG1 = 1) (mouse FcγRIII [1]): 34.4 fold | relative mFcγRII-binding activity (mIgG1 = 1) (mouse FcγRII [2]): 138 fold

B2: H237-MB338/MRAL-k0 (antibody, mouse IgG1, kappa)
heavy: QVQLQESGPGLVKPSETLSLTCAVSGHSISHDHAWSWVRQPPGEGLEWIGFISYSGITNYNPSLQGRVTISRDNSKNTLYLQMNSLRAEDTAVYYCARSLARTTAMDYWGEGTLVTVSSAKTTPPSVYPLAPGSAAQTNSMVTLGCLVKGYFPEPVTVTWNSGSLSSGVHTFPAVLQSDLYTLSSSVTVPSSTWPSETVTCNVAHPASSTKVDKKIVPRDCGCKPCICEDPEVEDVFIFPPKPKDVLTITLTPKVTCVVVDISKDDPEVQFSWFVDDVEVHTAQTQPREEQFNSTFRSVSELPIMHQDWLNGKEFKCRVNSAAFPAPIEKTISKTKGRPKAPQVYTIPPPKEQMAKDKVSLTCMITDFFPEDITVEWQWNGQPAENYKNTQPIMDTDGSYFVYSKLNVQKSNWEAGNTFTCSVLHEGLHNHHTEKSLSHSPGK
light: not shown
notes: copies: 2 + 2
Relative mFcγRIII-binding activity (MB110 = 1) (mouse FcγRIII [3]): 0.64 fold | relative mFcγRIII-binding activity (mIgG1 = 1) (mouse FcγRIII [3]): 2.6 fold | Relative mFcγRII-binding activity (MB110 = 1) (mouse FcγRII [4]): 3.44 fold | relative mFcγRII-binding activity (mIgG1 = 1) (mouse FcγRII [4]): 42.2 fold | mFcγRII-binding activity relative to H237-MB302/MRAL-k0 (before the introduction of V231D) (mouse FcγRII [5]): ~0.8 fold

B3: H237-mIgG1/MRAL-k0 (antibody)
heavy: B2 heavy with E229T, D230V, E234S, D235S
light: not shown
notes: Anti-IL-6 receptor antibody with unaltered mouse IgG1 H chain constant region; copies: 2 + 2
Kd (mouse FcγRIII [6]): 282 nM

B4: H237-MB367/L104-mk1 (antibody, mouse IgG1, kappa)
heavy: B2 heavy with D230A, P231N
light: DIQMTQSPSSLSASVGDSVTITCQASTDISSHLNWYQQKPGKAPELLIYYGSHLLSGVPSRFSGSGSGTDFTFTISSLEAEDAATYYCGQGNRLPYTFGQGTKVEIERADAAPTVSIFPPSSEQLTSGGASVVCFLNNFYPKDINVKWKIDGSERQNGVLNSWTDQDSKDSTYSMSSTLTLTKDEYERHNSYTCEATHKTSTSPIVKSFNRNEC
notes: the text speaks of it for this form; copies: 2 + 2
binding result (mouse FcγRII [7]): binds

B5: H237-mIgG1/MRAL-k0 (antibody)
heavy: B2 heavy with E229T, D230V, E234S, D235S
light: not shown
notes: Anti-IL-6 receptor antibody with the unaltered mouse IgG1 H chain constant region; copies: 2 + 2
Kd [8]: 282 nM

B6: H237-MB606/MRAL-k0 (antibody, mouse IgG1, kappa)
heavy: B2 heavy with D230V, E234D, D235S, S263M
light: not shown
notes: copies: 2 + 2
relative mFcγRII-binding activity (mIgG1 = 1) [9]: 0.05 fold | binding result [10]: no binding

B7: H237-MB879/MRAL-k0 (antibody, mouse IgG1, kappa)
heavy: B2 heavy with E229T, D230P, P231N, V233E, D235L
light: not shown
notes: copies: 2 + 2
relative mFcγRII-binding activity (mIgG1 = 1) [11]: 0.3 fold | binding result [12]: no binding

B8: H237-MB477/L104-mk1 (antibody, mouse IgG1, kappa)
heavy: B2 heavy with D230P, P231N, S263A
light: B4 light
notes: the text gives the rounded value for this form; copies: 2 + 2
relative mFcγRII-binding activity (H237-mIgG1/L104-mk1 = 1) (mouse FcγRII [13]): ~200 fold

B9: H237-MB590/MRAL-k0 (antibody, mouse IgG1, kappa)
heavy: B2 heavy with E229T, D230V, E234D, D235S, S263M
light: not shown
notes: copies: 2 + 2
binding result [10]: no binding | binding result [14]: no binding

B10: H237-MB477/MRAL-k0 (antibody, mouse IgG1, kappa)
heavy: B2 heavy with D230P, P231N, S263A
light: not shown
notes: mouse IgG1 CH variant; copies: 2 + 2
Kd (mouse FcγRIII [6]): 94 nM | relative mFcγRIII-binding activity (mIgG1 = 1) (mouse FcγRIII [6]): 3 fold | Kd (mouse FcγRII [15]): 1.07 nM | relative mFcγRII-binding activity (mIgG1 = 1) (mouse FcγRII [15]): 196 fold

B11: H237-MB677/MRAL-k0 (antibody)
heavy: B2 heavy with E229Q, D230P, P231N, D235K
light: not shown
notes: copies: 2 + 2
relative mFcγRIII-binding activity (mIgG1 = 1) [16]: 0.03 fold | binding result [14]: no binding

B12: H237-MB492/MRAL-k0 (antibody, mouse IgG1, kappa)
heavy: B2 heavy with D230P, P231N, N320D
light: not shown
notes: as for B10
Kd (mouse FcγRIII [6]): 25.8 nM | relative mFcγRIII-binding activity (mIgG1 = 1) (mouse FcγRIII [6]): 10.9 fold | Kd (mouse FcγRII [15]): 0.338 nM | relative mFcγRII-binding activity (mIgG1 = 1) (mouse FcγRII [15]): 622 fold

B13: H237-MB610/MRAL-k0 (antibody, mouse IgG1, kappa)
heavy: B2 heavy with E229T, D230V, V233E, E234S, D235E, F237D
light: not shown
notes: copies: 2 + 2
relative mFcγRII-binding activity (mIgG1 = 1) [9]: 0.23 fold | binding result [10]: no binding

B14: H237-MB881/MRAL-k0 (antibody, mouse IgG1, kappa)
heavy: B2 heavy with D230V, P231N, V233E, D235L
light: not shown
notes: copies: 2 + 2
relative mFcγRII-binding activity (mIgG1 = 1) [11]: 0.23 fold | binding result [12]: no binding

B15: H237-MB390/MRAL-k0 (antibody, mouse IgG1, kappa)
heavy: B2 heavy with D230P, P231N
light: not shown
notes: mIgG1 with T230E/V231P/P232N/S238E/S239D; also called template T8; copies: 2 + 2
relative mFcγRII-binding activity (H237-mIgG1/MRAL-k0 = 1) (mouse FcγRII [5]): > 500 fold

B16: H237-MB880/MRAL-k0 (antibody, mouse IgG1, kappa)
heavy: B2 heavy with D230V, P231A, V233E, D235L
light: not shown
notes: copies: 2 + 2
relative mFcγRII-binding activity (mIgG1 = 1) [11]: 0.34 fold | binding result [12]: no binding

B17: H237-MB675/MRAL-k0 (antibody)
heavy: B2 heavy with E229I, D230P, P231A, D235K
light: not shown
notes: copies: 2 + 2
relative mFcγRIII-binding activity (mIgG1 = 1) [16]: 0.01 fold | binding result [14]: no binding
